We go through 1 molecule from publication PMC3313673.

The assay addresses extracellular domain of quail MuSK (amino acid residues 1 to 463), His-tagged (quail). Nature of the assay: ELISA. Background: In an ELISA, binding on a coated surface is turned into a signal by an enzyme label.

B1: biotinylated recombinant biglycan (non-glycanated form) (ligand)
chain: DEEASGADTSGVLDPDSVTPTYSAMCPFGCHCHLRVVQCSDLGLKSVPKEISPDTTLLDLQNNDISELRKDDFKGLQHLYALVLVNNKISKIHEKAFSPLRKLQKLYISKNHLVEIPPNLPSSLVELRIHDNRIRKVPKGVFSGLRNMNCIEMGGNPLENSGFEPGAFDGLKLNYLRISEAKLTGIPKDLPETLNELHLDHNKIQAIELEDLLRYSKLYRLGLGHNQIRMIENGSLSFLPTLRELHLDNNKLARVPSGLPDLKLLQVVYLHSNNITKVGVNDFCPMGFGVKRAYYNGISLFNNPVPYWEVQPATFRCVTDRLAIQFGNYKK
modifications: biotin (site not stated)
In turn, B1 registered a signal of the plate assay (read at 415 nm) of 0.45.
